Target: Keap1 Kelch domain (recombinant) (human, UniProt Q14145 321-609)
Assay: ITC

Chain of Keap1 Kelch domain (recombinant) (Q14145 321-609): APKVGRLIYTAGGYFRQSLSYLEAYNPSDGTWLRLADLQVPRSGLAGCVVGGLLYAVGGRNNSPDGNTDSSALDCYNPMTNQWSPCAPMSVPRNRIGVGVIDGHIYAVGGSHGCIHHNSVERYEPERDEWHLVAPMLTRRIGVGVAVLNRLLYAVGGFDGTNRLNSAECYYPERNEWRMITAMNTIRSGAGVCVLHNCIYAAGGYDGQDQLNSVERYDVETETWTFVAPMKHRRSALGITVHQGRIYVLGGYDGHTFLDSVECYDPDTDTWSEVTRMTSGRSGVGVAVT

B1: Marburg virus VP24 (recombinant, used for ITC) (natural protein)
chain: MAELSTRYNLPANVTENSINLDLNSTARWIKEPSVGGWTVKWGNFVFHIPNTGMTLLHHLKSNFVVPEWQQTRNLFSHLFKNPKSTIIEPFLALRILLGVALKDQELQQSLIPGFRSIVHMLSEWLLLEVTSAIHISPNLLGIYLTSDMFKILMAGVKNFFNKMFTLHVVNDHGKPSSIEIKLTGQQIIITRVNMGFLVEVRRIDIEPCCGETVLSESVVFGLVAEAVLREHSQMEKGQPLNLTQYMNSKIAI
With B1 the Kd was 158 ± 20 nM.
